{"source": "the DeepSol protein solubility set", "data": [{"test": "soluble on expression in E. coli; label from the status in PepcDB or PDB records", "values": [{"sequence": "MEATGLITEYNPFHNGHLYHLKKAQELTKADVTIVLMSGNWVQRGLPAITDKWKRAQAAIDAGADLVFELPFYYAVQAGEIFAQGAVRLLSDLQVSSIICGSEHADIDFINLAAHEPDISGNSNFDKKNRTFASNYAAALEEKTGFYLENANDILAFSYAKAILNQNLTEKIKLRTISRVSADYHDQFLNDGEIASATAIRKALSEGQNVDSYTPMSDLQY", "soluble on expression in E. coli": "not soluble"}, {"sequence": "MEAVHCFRCYKFPSKQIEFYLTNCMHMFCIECERLCHPPEEEPLKCIQCSKTPIRIVKMGPELPMTIKSMFTPISEEINQYTRDLTRVLTFQHRQRASLSTFLERKVAAFDRLRDAYSEEKTKKEHYKKQLEEAYHLLKSKEHEISKLKKQLAEQAPPPQTPPRSNSLKVASSRSLETPSMMRVFSDSMYETPVQIQRRFTKAQAKAEAEAEAPAKSPGSKAQTTKCTSNYQSHPPASFETPIHHPPKTSMGFTTPANPPHMFPYLKKHEAQREKHKEHRNSQ", "soluble on expression in E. coli": "not soluble"}, {"sequence": "MECRLGCGACCIAPSITSFIPGMPNGKPAGVRCVQLNEENLCKLFGKAERPKVCHQFSACPDVCGSTSEQAIQTITELESMTLLEHHHHHH", "soluble on expression in E. coli": "not soluble"}, {"sequence": "MEDEVFVFTPKGDLFKLAKGATVLDFAFHIHSKLGCKCIGAKVNGKNVQLKQKLNSGDQVEIMTSNTQTPKQDWLEHHHHHH", "soluble on expression in E. coli": "not soluble"}, {"sequence": "MEDFWEDWDLAFEDVFPKSLKEALEGIKEIPTYGERGASRFMYNLLKLEKEKRKEIIEKVLEAVEVLRPCRECFLITDREVCPICSDEKRSKKFICVVEESQDAYAIEKLERYKGVYHVLQGHIAPLEGISAEDLTIDALMERIKKYQPKEVILATNPNVEGEATANYIAGLIRRKFPAVKITRTAYGFQFGSLIEFVDEYSLEKSMENRK", "soluble on expression in E. coli": "soluble"}, {"sequence": "MEDIWPTIERTTISASVPEAPANFDEKPPFNRTINVYPLTNYTFGTKDAQAEKDKSVPERFKRMKDEYEVMGMRRSVEAVLIVHEHSLPHILLLQIGTTFYKLPGGELELGEDEISGVTRLLNETLGRTDGETNEWTIEDEIGNWWRPNFDPPRYPYIPAHVTKPKEHTKLLLVQLPSKSTFCVPKNFKLVAAPLFELYDNAAAYGPLISSLPTTLSRFNFIFNDSN", "soluble on expression in E. coli": "not soluble"}, {"sequence": "MEDLKHSDALVREQATKKLWRIWFQQKGMYGLEKIDQSQKLLDAGEITEAEVMLTQLIQEQPDFAEAWNRRAFLYYSMGEYQKSLADCQMVIQINPVHFGALHGIGLCYAALGKYAKAIKAFKRALEIQPYSLVNQKLILECTFRLSLEHHHHHH", "soluble on expression in E. coli": "soluble"}, {"sequence": "MEDLNFEERGSTQIPASLQQHFSAKLGRQNELEKTPSRGGLGLVVNSSKTPGGKSLQSLASACKVPPSTKKNTIPIAFECYEDETDDQIADVATIKKTEKHPCSPIDTANRCETFDSLAADIEDDMLNLEDQDVVLSEDRPYGDVIDPAESEAEALAELGVEEWDSYPPIDPASRIGDDFNYVLRTEDFAEEGDVKLEETRHRTVIADIDEVKMSKAERNELFSMLADDLDSYDLLAEEANLPL", "soluble on expression in E. coli": "not soluble"}, {"sequence": "MEEDQEEPPSSSTSSESPEVVLKAPKAPTRRRKNSKKDRRQDMEVDDGEKESTAQYCKGFYDALRVMQTTNKYEFTGGAVSSPVLPVLQTAAFSPITPASASDMHTIVMSLLGNTPITSGPSIAPLSSPTLLPLVTSGDLDDLSMKILASSAIPGPPIISSSNSPDSSTTAVTTSQITAFQPLLNNFVSSTTASTSRPDKLNLTPPQQSAEIYAFNGVNSDDSDGGLDSRSASRCG", "soluble on expression in E. coli": "not soluble"}, {"sequence": "MEEIWLSCHALVFHTTPTQRLCVGWGELAVGRFVKMAAAPAPEMTPRLDVSKNATDPDSLTDHGFQYSRHRPVITDHKRFDRLVGFSIKQSNVELAAEAIKQAATVWCLTEKKSDKRDEDSVKFLATYLYKESLYWGKIDPRRALQRATAESWLGSQSFAPTSARTYKAVLHTAGRVLYPAEFPPANRYSNPRAKPVDPASVELIDELYGVAATLPAVHRLRLQLILDLTTQSGLRSAEVLDLRGSDVTARILDTGERIALVRVHR", "soluble on expression in E. coli": "not soluble"}, {"sequence": "MEELNKYKQEIKDNALKELDSTKKKINEEKKHWGDLPLTYMPISNGTMTREYAETEQFYSHVVNVKNILDSLFEEVENDIKRLDAIFCFNEYTVYGQEDIEQIKENIKNEYKTSVAHFSKLWEDIKAMSVLLRSCFNKTWDRHSEVTLLTVIQTLDESIKHRGGPNYDKNNDNFFLLRECGSALRECNTQIKMDEKNLIIRIINTKDLEGGFKKSLETLLNENESANFIKLLAEYLEGVNLNVDVQVLKENFFIFAQGIKQFYLNNVETLKD", "soluble on expression in E. coli": "not soluble"}, {"sequence": "MEEMRVIGLLSSGIDSPVAIHLMASRGAEVYPLHFRQDEIKEKKARKLVSRLKEIHGEKVKDLKVVDALKVQGPVFEKLRELKREKWICIFCKYTMYMVAEKYAREVGAEAIVTGDSLGQVASQTLDNLMVISTATNLPIIRPLIALDKEEIVRIAKEIGTFEISIENEPPCPFLPKFPVVRAGFSQFRKILEEIREVLPK", "soluble on expression in E. coli": "soluble"}, {"sequence": "MEENNKILIYTDSEGLTKIDVILEDETLWLTQAQMCELYQTSKSNVSEHIKHIFEEGELQEDSVVRKFRTTASDGKSYMTAYYNLDMIIALGYRIRSIIATRFRQWATQRLKEYMIKGFALDDERLKQLGGGGYWKELLERIRDIRATEKVLYRQVLEIYATSIDYDPRASVSQEFFKKVQNKIHYAIHGHTAAELIVERADAEKDFMGLLTFKGNQPTLSEARTAKNYLDEKELRAMGQLVSGYLDFAERQAEREQPMTMNDWANYLDRILTMSGEQLLLDSGKVSHTEAMEHATNEYRKYKQRTISDVEQDYLDSIKRIGNIGKKGDKNEN", "soluble on expression in E. coli": "not soluble"}, {"sequence": "MEEPINVLLLGMDIGDTSDVSNKDAKRTDTIILANFDPITKEAKLISIPRDTRVKIGGKSQKINAAYPIGGEKLVKQLVGNILGVKVDYVVKVDYEGFRGIIDAIGGIDMYIEQDMNYDDPGQDLHIHFNKGETVHLDGKKAEEFFRWRKNNDGTGLVNGDVDRIKNQQKFINAVIDKVLSVSTITKIDSIAEILNKNIETNIPLDVTVAYGLKGLETDKNNIKMMTLPGEGKYVGNVSYYIPDEKATKELRSQLNSSNLSGRKNVIPSAARGDLSIKVLNCTKINGLAANVQKQLNENGYDKVDVGNGDPREKSEILIKDESSRAFMENDLKIENIKKGISSKYDGNGTYDVVILLGKDFKNFGEMKLEHHHHHH", "soluble on expression in E. coli": "soluble"}, {"sequence": "MEFEFIKNTLLGEYAVRCNMEHQIVGRWLQEEIGQDLAKLKHVLTLIDKAEQSPAQEFLWTGREISLLVQGDEITVQENALAYESEHELETDFALYDSESIAACGREDFVALLTQWQSFIQNQGRF", "soluble on expression in E. coli": "not soluble"}, {"sequence": "MEFIVCNGCGCSPSKRQFFITACSHVFCETCRTTPTADFCHLCKIPTKTLKMDASLPKNVKKMFGDVGVMSTDIHKRLARVIGFQKIQKSIQLKMENKKSVMRKEQTKKVEKKTEEMHCQLSKLTSFEENNRKKLEDIERENEKLRNLISALELKVASSRDIDDDEFFMQGTPTSSNPSVAGSDVDNDELLDYDLLGLRNRSDSSSSNCSSQSNRGGSLF", "soluble on expression in E. coli": "not soluble"}, {"sequence": "MEFKDFPLKPEILEALHGRGLTTPTPIQAAALPLALEGKDLIGQARTGTGKTLAFALPIAERLAPSQERGRKPRALVLTPTRELALQVASELTAVAPHLKVVAVYGGTGYGKQKEALLRGADAVVATPGRALDYLRQGVLDLSRVEVAVLDEADEMLSMGFEEEVEALLSATPPSRQTLLFSATLPSWAKRLAERYMKNPVLINVIK", "soluble on expression in E. coli": "soluble"}, {"sequence": "MEFKEYKGKNVDEAITNACIDLGIEAAKLEYEVIEKGSNGFLGIGSKPAIIKAKKNQSVEDIAREFLNKVFTAMELTVKIDIKIVENEKENIVNINIIGEDMGILIGKRGQTLDSLQYLVSLVINKECEKFNRVKLDTENYRERRKATLENLARNISLKVKRIKKPVALEPMNPYERRIIHSALQNDKFCTTKSEGDEPYRHVVVMLKKDAR", "soluble on expression in E. coli": "not soluble"}, {"sequence": "MEFRQLKYFIAVAEAGNMAAAAKRLHVSQPPITRQMQALEADLGVVLLERSHRGIELTAAGHAFLEDARRILELAGRSGDRSRAAARGDVGELSVAYFGTPIYRSLPLLLRAFLTSTPTATVSLTHMTKDEQVEGLLAGTIHVGFSRFFPRHPGIEIVNIAQEDLYLAVHRSQSGKFGKTCKLADLRAVELTLFPRGGRPSFADEVIGLFKHAGIEPRIARVVEDATAALALTMAGAASSIVPASVAAIRWPDIAFARIVGTRVKVPISCIFRKEKQPPILARFVEHVRRSAKD", "soluble on expression in E. coli": "soluble"}, {"sequence": "MEFRVYAGREELAGLVKPMRGGDVEIRIQPVERKVLEFVPLKAETAIEERKSIIVGLDPGITVGIAAIDLDGNIISVYSEKNMALSEIVRFISELGHPIIVATDVNPAPGLVEKIARSFKAQLFVPRESLKVEEKNELLKNLGISVSDDHQRDALEHHHHHH", "soluble on expression in E. coli": "not soluble"}, {"sequence": "MEFTDIAMELSKKAWQASFHHPFILQLQEGNLEPAIFRYYLIQDAYYLKAFSEIYHLLADKTSNQEMKRLLKQNAQGLVEGELFIRQQFFKELEISDQEMEQHPIAPTCYHYISHIYRQFAEPNLAIAFASLLPCPWLYHDIGKSLNLKPSPNPLYQQWIETYITDELEQQIREEGALVNQLYRESDETDKQKMLDAFHISVHMEAKFWEMAYQHQTWKSDLQSLEKGEEMAGDPLEHHHHHH", "soluble on expression in E. coli": "soluble"}, {"sequence": "MEGFGMPKLIISGRGGSGKSTLVTLIAHTLKEQKKRVLVVDSDESNIGLSGILGIEPAEKTLMDYLGGKPRVMKKLRSMIRDGETEPELFREKFDLESLSQEFVCWVGSLGLMQIGKIDHAMEGCACPMGAVTRDFLNHVRLEEDQWVLVDTEAGVEHFGRGIVEGADAVVMVVDPSSDAVLLAEKAAKLTHEADKRFGVILNKIDEETEPILTELLTSEGNEIKGVLPYSPAITKMNLKGESLGAYAVKNEVDEIIRELMKCLEHHHHHH", "soluble on expression in E. coli": "not soluble"}, {"sequence": "MEGLLIHAVLRELEKELPAQNLGLAFPEEGTAAILLKGRTGRLFNLVLHYRPPTPSLALEPGRLQGEPKTPFQRQLQARVKGPLVEASQLKLDRVAFFRFAGEKGFVDAPPSVLVLEATGRNANLLLLDEEGRILGVDRVITKEVNRYRELRPGLPYTPPPPYRKLDPRTLAEEDLLPLLGKPLKEVIRHVDGVGQELLRELARRAGLTPETPLDEAGLGRVYRALKTLVEDPSLRTELSEELRRRWAEEEKEALRKPLLEALDREIRTLKARLGDYQEALERLEEAEALRRRADLLLARLKEVPKGAEKVVLEGFDGKPVEIPLDPALSPQENARKLYDRARRLEELAEKALDLIPKTEARIRELEAEKERLRTLDLEGLLALAQRPKGEKGLKVGLRYTSPSGFLVLVGRNAKENDLLTRAAHSEDLWFHAQGVPGSHVILKTEGKNPPLEDLLFAARLAAYHSKARGERQVPVDYTRKKHVWRPRKAAPGQVLYTQAKTLFVEGLLPEPREEA", "soluble on expression in E. coli": "soluble"}, {"sequence": "MEHKIVHVGDIPVANDKPFTLFAGMNVLESRDLAMQICEHYVKVTDKLGIPYVFKASFDKANRSSVHSYRGPGLEEGMKIFQELKETFGVKIITDVHTEAQAQPVADVVDVIQLPAFLARQTDLVEAMAKTGAVINVKKPQFMSPGQVGNIVEKFAECGNDKVILCERGSCHGYDNLVVDMLGFGVMKQASNGSPIIFDVTHSLQMRDPSGAASGGRREQTVELAKAGLATGIAGLFIEAHPNPDKARCDGPSALPLDKLEPFLAQMKALDDLIKSFAHIDIR", "soluble on expression in E. coli": "not soluble"}]}]}
